In article PMC6311151 (Biochimica et biophysica acta. Molecular and cell biology …, 2018):

Target: the molecule itself
Assay: SEC

B1: Gloeobacter ligand-gated ion channel (natural protein)
chain: QDMVSPPPPIADEPLTVNTGIYLIECYSLDDKAETFKVNAFLSLSWKDRRLAFDPVRSGVRVKTYEPEAIWIPEIRFVNVENARDADVVDISVSPDGTVQYLERFSARVLSPLDFRRYPFDSQTLHIYLIVRSVDTRNIVLAVDLEKVGKNDDVFLTGWDIESFTAVVKPANFALEDRLESKLDYQLRISRQYFSYIPNIILPMLFILFISWTAFWSTSYEANVTLVVSTLIAHIAFNILVETNLPKTPYMTYTGAIIFMIYLFYFVAVIEVTVQHYLKVESQPARAASITRASRIAFPVVFLLANIILAFLFFGF
stoichiometry N: 5
